Assay results: the DeepSol protein solubility set

Assay: soluble on expression in E. coli; label from the status in PepcDB or PDB records

| Sequence | soluble on expression in E. coli |
| --- | --- |
| MAHHHHHHMQFVSDLGLELSVFVCHLYAKYSEEPLKAFHELVLRTRSSCCGSDDSSNYLSLATLSGTQWYQDMTKRYASLRQRLRGERDNDVQEAREVTLSLYPQGCRVSEYADAIVTSAAMLTSNIPSTVLERFASCRVKDLNEKGCVSISADELASDLIERPVLDSFTPSRWWESDKTAPSSSLKDGLVAVKSIGLRVQPVEILIFYTYNGRPRRRFIPLDGLLHENSPIAPLLRRLVRSHGMLVSESQLRSYLQRLQELMRKSVESHASTVKPEGPLQPQFDWKQQIGYSDNAPAAHNTGEEEQHMTSAKTGEPEVNKADVGLLYRDPEAALKNVDLNDADDITLQEFKAKMNEGFMQNALRPGDPGYVYDKRLDVNPTERSEWDDSD | not soluble |
| MASSSSLSLSFPSSSLSRTWDYDVFPSFHGEDVRKAFLSQILKKEFGRKAINFFVDHEMERGEFIGPVLKQAIKGSKIALVLLSKNYASSWCCLDELVEIMKKESGQTVITIFYEVDPNEVKKQTGDFGKAFKETCQGKTEEKVQTWRKALEGVGLATIAGFHSSNWFVFFI | not soluble |
| DMSKVNLEVIKPWITKRVTEILGFEDDVVIEFIFNQLEVKNPDSKMMQINLTGFLNGKNAREFMGELWPLLLSAQENIAGIPSAFLELKK | not soluble |
| VLGSSSTDAIGPGSVFQIDATVADVYLVSRFNRTHIIGRPVLYIVQDCFSKLIVGLYVGLEGPSWIGAAMALANTAGNKVSFCSQYGIDIQEEEWPVHHLPQAILADRGEMLSDNAESLIMNLGITVKNTPPFRADWKPLVERYFKLTNERTKSLLPGAVNTDFMQRGGRDYRLDAKLDLMQFTAIIIKCALFHNNHYRIDNYNKDEMMVADEVEPIPREIWNWGIANRMGKLRHVDEEVVKLNLMPSDNGVVTAKGIRFKGLFYSSKSSMKEQWFVKARSSGSWKVPVSYDPRNMNYIYIKKSATEFEKCYLLEYQTAFKDKYIEEIEYLMEWEKMQKAKSLDEGLQAKADLITEIETIVEGAKSKTNKELSLSTESDAQRKKNIRQNRQVEKEINREIEAFELDRQPNNKNAEIISLNELEEELPSNPLDLLRRKQREMLGKINE | not soluble |
| MSLTKKDVIKLLEQIATYMELKGENTFKISAYRKAAQSLELDERPLDEISDVTELKGIGKGVAEVINDYRETGESQYLQQLQEEVPEGLIPLLKIQGLGSKKIAKLYKELNIVDKASLQVACENGKVSELSGFAKKTEQNILEAVKQLGAKKDRYPIDQMRRLNQEIIDYIDTLNYIDQYSSAGSFRRFKEMSKDLDFIISTDNPKAVQQQLLNIPNKVKEVAVGNTKVSLELAYDDETIGVDFRLIEPRAFYHTLQHFTGSKEHNIRIRQLAKARDEKVSEYGIEQADGTLIQYDSEAKIYEHFNVNFIPPAMREDGSEFDKDLSNIITLDDINGDIHMHTTYSDGAFSIRDMVEANIAKGYKFMVITDHSQSLRVANGLQVERLLRQNEEIKALDKEYSEIDIYSGTEMDILPDGSLDYDDEILAQLDYVIGAIHQSFNQSEEQIMERLANACRNPYVRHIAHPTGRIIGRRDGYKPNIEQLMALAEETNTVLEINANPHRLDLNAEIVRKYPNVKLTINTDAHHTNHLDFMNYGVATAQKGFVTKDRVINALSREAFKDFIENNIKLKKEGHHHHHH | soluble |
| MSLEMTIAYIQENPYRLADEISGIGFKKADQIARAMGISLNSKYRIHSGIKYMLGTFHGEGHTYAPGDILIDRTRELLSVEESEVVEGIQELALKQKIQLERQDEEIIVYSMPYFYAETNTCNKLIELSQVELEPLEIDVDYEIESIEKEDGIALATNQKEAIRQSIENGIIVITGGPGTGKTTIINTLIKVFGKLKKKILLAAPTGRASKRMTEATGKEAKTIHRLLEMGYSDDDDGMLFQRNEENPLPADIIIIDEVSMVDIMLMNSLLKAISVGTRLIFVGDVDQLPSVGAGNVLRDIIDSKIIKVVRLNEIFRQAEESMIVVNAHKINKGEYPILNHKDKDFYFMSRSRSEDILNTIIGLVKERLPKHYKFDPIKDIQVLTPMKKGEVGSINLNKELQNYLNPPDKYKREKELREKVFRVGDKVMQIKNNYTLKWASLDPDTEERQGEGVFNGDMGYIQHINPEAQELTVFFDDNRSVVYTYTQLDELELAYAITIHKSQGSEFPVVVMPVTWGPPMLLTRNLLYTAITRARSLVVLVGTENYLNLMVSNNKIVERYSGLGIRLKKFYNEGHHHHHH | soluble |
| MGSDKIHHHHHHMSDSKWKYNIIYNMEIEVLTGLHIGGSNEELKIGGTDSPVITTKYLINNVEPCDLPYIPGSSIKGKIRSLLENVDYKGKNGDDIVSKMFGYYPNAGEGIKRLTRLIIRDAFLDDGHIKSAEDARNVIEIKSENKIDPIESKATPRFIERVRRGTKFKGKIILSIYEGDNEEEMIKCLKTGISLLEDSYLGGNGTRGYGSVKITLGEPIKKGIDKYEENIKDNTSNGSEN | not soluble |
| MKLYFIINPAAKNGRSVSIWKQLQPLLDREGIAYQAYWTSRKGEGKEIARRIGEESVEPTVIAAVGGDGTVHEVVNGAGSFPHVAIGCIPAGTGNDFVRGFRLARKPKQALQRLLSDVRSGKDLAFDLGRFASSAVPDGVFANSIGCGFDAHIARMANRSKWKGRLNRFGLGSFIYVFYLVRELFRYQPVDLDICVDGQNYSFLKAWLATASNHPYYGGGMRIAPSVRADDGLLHVTVVGPMPRWKILALFLTVFWGGHVRMKEVCVFTGRNVRIRPAAPVLIHADGEDAGEGEVFAWIEPGRLRVIGVKTR | not soluble |
| MLPLNATITQIIEESPLIRTFFFDHKFEDMEPGQFVMVWVRGVDEVPMGLSRNNSITVQKVGEATSKLFELKEGDSFGLRGPFGKGFTLPAKGEKVLIIAGGVGAAPLSPYAEAAFAAGAEVNTVLGARSEEHLLFEGRFEALGTVYVSTDDGSKGFKGFVTDVLKNLDVTSYDRIAVCGPEIMMASVFRFLEEREVLEKSEFSLHRYFKCGIGVCGACCIDRSGLRVCKDGPVFSGTQLIGSELGKYSRDASGRRVKI | not soluble |
| METAVEVRAPAAAAWELLTDTRRWSEWGPSVSGVECPERFIGPGTIGWVRTVVGLRLPFRITEFEPGRRWCWSVAGIPATGHRVEPLGQERCRVVFEVPMPAAPYLAVCRVAALRIRSILEGLEHHHHHH | not soluble |
| SAGAAPTTAFGQAVIGPPGSGKTTYCLGMSEFLRALGRRVAVVNLDPANEGLPYECAVDVGELVGLGDVMDALRLGPNGGLLYCMEYLEANLDWLRAKLDPLRGHYFLFDCPGQVELCTHHGALRSIFSQMAQWDLRLTAVHLVDSHYCTDPAKFISVLCTSLATMLHVELPHINLLSKMDLIEHYGKLAFNLDYYTEVLDLSYLLDHLASDPFFRHYRQLNEKLVRLIEDYSLVSFIPLNIQDKESIQRVLQAVDKANGYCFGAQEQRSLEAMMSAAMGADFHFSSTLGIQEKYLAPSNQSVEQEAMQL | not soluble |
| MSAFTPASEVLLRHSDDFEQSRILFAGDLQDDLPARLDTAASRAHTQQFQHWQVLSRQMGDNARFSLVATADDVADCDTLIYYWPKNKPEAQFQLMNLLSLLPVGTDIFVVGENRSGVRSAEQMLADYAPLNKVDSARRCGLYFGRLEKQPVFDADKFWGEYSVDGLTVKTLPGVFSRDGLDVGSQLLLSTLTPHTKGKVLDVGCGAGVLSVAFARHSPKIRLTLCDVSAPAVEASRATLAANGVEGEVFASNVFSEVKGRFDMIISNPPFHDGMQTSLDAAQTLIRGAVRHLNSGGELRIVANAFLPYPDVLDETFGFHEVIAQTGRFKVYRAIMTRQAKKG | not soluble |
| MAHHHHHHMQRDADRMKRKKEEHRDEEEFGAFRFADGSMYEGKFCRRESNADGTAKSQFPSAHPPTTRNAQQQELPPPIPFHHGKGVFKDAGGLVYDGCWVEGDMTGEGLLRFPSGATYEGSMYANSFWGTGTYTWPDGSRYEGQWENNKMHGKGTYIDAKGKRWAGKFHHGQGVGLLAEVSL | soluble |
| MGSDKIHHHHHHMLTQLQCPSCGGRLLSNKEGRNSILCQSCKKEFSAREGVLCFVPDNVFTQLDNIDYDKHYSISDESSQQAFASLKGVLGNRLKNNYGVLLEIGAGTGGFTKGLLTNIKVNRAIVTDISPKMLSICRKRVLGESHLADDVIFATYSTGENILPSNSIDCIIGSFVLHHILDYKSFIRKSYDLLKKDGAFIFSEPCYKFHDALVLTMSEILETLIGEGDNSEVDLTRLSNWIHELHFNLKYVGDQDVLSGREDKHLFIRSEVENSAFDVGFELVEILPYGDPDAINQCLLSYLPQLDLSHIFLQKVSNLFDLYHIKYFGLIEREDAVPAYVFFFKKKMNLFSRLFKNV | not soluble |
| MDDSTLRRKYPHHEWHAVNEGDSGAFVYQLTGGPEPQPELYAKIAPRAPENSAFDLSGEADRLEWLHRHGIPVPRVVERGADDTAAWLVTEAVPGVAAAEEWPEHQRFAVVEAMAELARALHELPVEDCPFDRRLDAAVAEARRNVAEGLVDLDDLQEERAGWTGDQLLAELDRTRPEKEDLVVCHGDLCPNNVLLDPGTCRVTGVIDVGRLGVADRHADIALAARELEIDEDPWFGPAYAERFLERYGAHRVDKEKLAFYQLLDEFF | not soluble |
| MVSVIKPEMKMRYYMDGSVNGHEFTIEGEGTGRPYEGHQEMTLRVTMAKGGPMPFAFDLVSHVFCYGHRPFTKYPEEIPDYFKQAFPEGLSWERSLEFEDGGSASVSAHISLRGNTFYHKSKFTGVNFPADGPIMQNQSVDWEPSTEKITASDGVLKGDVTMYLKLEGGGNHKCQFKTTYKAAKKILKMPGSHYISHRLVRKTEGNITELVEDAVAHSLEHHHHHH | soluble |
| MAGDPMADQEANAEQPMPKAEQKKPEKKAVQVQKKEDDTSAWIKTEKPAKLPILMYHSISSGNSLRVPKKEFEAHMKWLHDNGYQTLTPKEASLMLTQDKKPSEKCVLITFDDGYTDNYQDAYPVLKKYGMKATIFMIGKSIGHKHHLTEEQMKEMAQHGISIESHTIDHLELNGLTPQQQQSEMADSKKLFDNMFHQQTTIISYPVGRYNEETLKAAEKTGYQMGVTTEPGAASRDQGMYALHRVRVSPGMSGSAFGAYIESMKLEHHHHHH | soluble |
| MATSMTDIKGFNMISIEQEKELGNKFAVEIEKQQQPVNDPEVQRYVDKVGKRLLSGARAVEFDYVFKVVKDDSVNAFAIPGGRVYVHTGLLKAADNETELAGVLAHEINHAVARHGTRQMTQEYGYSLVLSLVLGDNPNMLAQLAGQLFGKAGMMSYSREYENQADFLGVETMYKAGYNPNGLTSFFQKLNAMDGGTQSNVARFFSTHPLTSERIQRVQAEIAKLPPQRYLTDETEFKKIKGRLKLEHHHHHH | soluble |
| MGSDKIHHHHHHMNAPNSQKILFAITKKSQQDGRSFPTIIRVLKRIGSCAPQGVFQMLHWKPEYLRAFVSERSPQKLFDIAVHLAQDLDMDYLGLNIRIQIATQTPRLYLYSNYPSEWIERYQRDDFYKQDPAANLSHSSTMPVLWTDELYKEAPQFREMACLYGLRHGWTQSLHDQQHNESQISVARPNGPIDEVELYDKAGSVQWLCHTLHAVLGEHHLNALCPPQPKMSERELEVLKWSAAGKTAADVASILSLSQSTVNFHIRSVITKTNAANKAGAIAIAALRGWI | not soluble |
| MAHHHHHHMATPRHGDLDSICSLSSSENSPRGGGQSSERLIDLLTRPCAQGGYGGRLNYTGFATLAASLGWNQEDMDDCWYDIVMGEPCAEAVDMKRVAECVCSYCLASPLPILEHSTLAKSSAAKPATPPRLPHASRERSTTVLLSPPTPRFRRAESVASTLPKTGDKQRVTTATASPSQACAHRRCTAPNVFPRYAVETVSSEQKKASLSPGRGSHRPHNRRTTAKSSRQTSPAPTLSQTSGPSGCSVFSRLYEKGMEQHRKRIAVKPVDSDAAECTFQPHITPYTPKAADTASVHYNKPTESYFAKLTAPGTPPDAICASPETPRVTYHPAPGPSSDVPAGYVEGVARLRSYIASRYAHATFASSLRGSSSADVAHLVEAPILRLPVTVRGVTDAVDVRLASPDTRASLGRECSVGPRRPCFRQRCEARHVSFPSPSRVRFQS | soluble |
